Experimental data: article PMC3806850

Assays:
[1] = target: C215Fab-SEE (not stated | not stated (staphylococcal)) (UniProt P12993); assay: SPR
[2] = target: 5T4Fab(V18)-SEA (not stated | not stated (staphylococcal)) (UniProt P0A0L2); assay: SPR
Chain of UniProt P0A0L2 (P0A0L2 whole entry, looked up): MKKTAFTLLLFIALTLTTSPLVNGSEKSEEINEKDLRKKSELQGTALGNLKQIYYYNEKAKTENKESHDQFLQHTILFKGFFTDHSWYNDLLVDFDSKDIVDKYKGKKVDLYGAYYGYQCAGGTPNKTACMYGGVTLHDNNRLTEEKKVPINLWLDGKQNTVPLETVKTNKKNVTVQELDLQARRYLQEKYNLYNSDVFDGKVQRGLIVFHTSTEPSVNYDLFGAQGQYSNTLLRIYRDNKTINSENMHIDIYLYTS

Substance “Recombinant soluble human MHC class II (HLA-DR1) in complex with HA peptide (from UniProt P01903) (peptide-MHC)” has a Kd [1] of 1300 nM, a koff [1] of 0.0029 s⁻¹ and a kon [1] of 2300 M⁻¹ s⁻¹. For the same substance, the Kd [2] was 400 nM, the koff [2] was 0.0011 s⁻¹ and the kon [2] was 2800 M⁻¹ s⁻¹.
